This data set concerns the molecule itself. The data set is described as follows: SEC. (SEC sorts molecules by how far they enter the pores of the column.)

B1: Gloeobacter violaceus ligand-gated ion channel (GLIC), wild type, pentameric assembly (natural protein, UniProt Q7NDN8 44-359, looked up)
chain: QDMVSPPPPIADEPLTVNTGIYLIECYSLDDKAETFKVNAFLSLSWKDRRLAFDPVRSGVRVKTYEPEAIWIPEIRFVNVENARDADVVDISVSPDGTVQYLERFSARVLSPLDFRRYPFDSQTLHIYLIVRSVDTRNIVLAVDLEKVGKNDDVFLTGWDIESFTAVVKPANFALEDRLESKLDYQLRISRQYFSYIPNIILPMLFILFISWTAFWSTSYEANVTLVVSTLIAHIAFNILVETNLPKTPYMTYTGAIIFMIYLFYFVAVIEVTVQHYLKVESQPARAASITRASRIAFPVVFLLANIILAFLFFGF
Usually stoichiometry N stands for a count of units in the complex or per binding partner. On to B1, for which the “stoichiometry N” value is 5.

These data come from PMC4860158 (Journal of neurochemistry, 2016).
